From the nanobody polyreactivity screen of Harvey et al. (2022)

Experiment: yeast display, Sf9 membrane polyspecificity reagent, FACS + sequencing; frameworks hold sequencing errors
In short: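 Genes from sorted yeast were amplified by colony PCR, read by MiSeq 2 × 250 sequencing and filtered on CDR length. These cells carried a synthetic nanobody library in Saccharomyces cerevisiae BJ5465 and were sorted by FACS into low and high (top ~1%) gates on anti-HA and streptavidin fluorescence. Polyreactivity is labelled according to the gate of origin.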

Row | Sequence | polyreactivity (PSR sort gate)
1 | QVQLVESGGGLVQAGGSLRLSCAASGRIFGLYAMGWYSQAPGKERELVAAISRGGGSTYYSDSVMGRFTISRDNAKNTVYLQMKSLKPEVTAVYYCATGLGYFSRLDYWGQGTQVTVSS | low polyreactivity
2 | QVQLVESGGGLVQAGGSLRLSCAASGRIFGLYTMGWYRQAPGKERELVAAITSRGGRTYYADSVKGRFTLSRDNAKNSVYLQMNSLKPEDTAVYYCAAGGYWSLKYDYWGQGTQVTVSS | high polyreactivity
3 | QVQLVESGGGLVQAGGSLRLSCAASGRIFGNNVMGWYRQAPGKERELVASINYSGRTYYADSVKGRFTISRDNAKNTVYLQMNSLKPEDTAVYYCAARRYAWFYPYVTYDYWGQGTQVNVSS | high polyreactivity
4 | QVQLVESGGGLVQAGGSLRLSCAASGRIFGNNVMGWYRQEPGKERELVAAITFSGTSTYYADSVKGRFTISRDNAKNTVYLQMNSLKPEDTAVYYCAKYRYADYYSPGYDYWGQGTQVTVSS | low polyreactivity
5 | QVQLVESGGGLVQAGGSLRLSCAASGRIFGNYAMGWYRQAPGKERELVAAISNGSGRTSYADSVKGRFTISRDNAKNTVYLQMNSLKPEDTAVYYCAVLRPKSRKHTVGFCYWGQGTQVTVSS | high polyreactivity
6 | QVQLVESGGGLVQAGGSLRLSCAASGRIFGPYAMGWYRHAPGKERELVAAISSSGSTTYYADSVKGRFTISRDNAKNTVYLQMNSLKPEDTAVYYCAKPSSRDSPYDYWGQGTQVTVSS | low polyreactivity
7 | QVQLVESGGGLVQAGGSLRLSCAASGRIFGPYAMGWYRPATGKERELVAAISSRGSSTYYADSVKGRFTISRDNAKNTVYLQMNSLKPEDTAVYYCAARDYLAYYWGPSLYTFDYWGQGTEVTVSS | high polyreactivity
8 | QVQLVESGGGLVQAGGSLRLSCAASGRIFGPYAMGWYRQAPGKERELVAAISGRGSSTYYADSVKGRFTISRDNAKNTVYLQMNSLKPEDTAVYYCAKYPTYSYDYWGQGTQVTVSS | high polyreactivity
9 | QVQLVESGGGLVQAGGSLRLSCAASGRIFGPYAMGWYRQAPGKERELVAASSTDYADSVKGRFTISRDNAKNTVYLQMNSLKPEDTAVYYCAKVGFGIPGGFYYWGQGTQVTVSS | low polyreactivity
10 | QVQLVESGGGLVQAGGSLRLSCAASGRIFGPYTMGWYIQAPGKEREFVAAITRRGGTTYYADSVKGRFTISRDNAKNTVYLQMNSLKAEDTGVYYCDAVGQKRSLGYSWGQGTQVTVSS | low polyreactivity
11 | QVQLVESGGGLVQAGGSLRLSCAASGRIFGPYVMGWYIQAPGKERELVAAISTSGTSTYYADSVKGRFTISRDNANNTVYLQMNSLKPEDTAVFYFAKRSGARHRLMDYWGQGTQVTVSS | low polyreactivity
12 | QVQLVESGGGLVQAGGSLRLSCAASGRIFGQNAMGWYRQAPGKERELVAAITWNGGRTYYADSVKGRFTISRDNAKNTVYLQMNSLKPEDTAVYYCNADGKHRLRDYWGQGTQVTVSS | high polyreactivity
13 | QVQLVESGGGLVQAGGSLRLSCAASGRIFGQNVIGWYRQAPGIERELVAAITSAGRTYYADSVKGRFTISRDNAKNPVYLQMNSLKPEDTAVYYCAAQYPINYFTGYGYWGQGTQVTVSS | high polyreactivity
14 | QVQLVESGGGLVQAGGSLRLSCAASGRIFGQYAMGWYRQAPGKERELVAAITYSTGSTSYADSVKGRFTISRDNAKNTVYLQMNSLKPEDTAVYYCAAGGGRWYYPKRGSPYGFYYWGLGTQVTVSS | high polyreactivity
15 | QVQLVESGGGLVQAGGSLRLSCAASGRIFGRNAMGWYRQAPGKERELVAAIRLSGGSTYYADSVKGRFTISRDNAKNTVYLQMNSLKPEDTAVYYCATRPVANGRKYDYWGQGTQVTVSS | high polyreactivity
16 | QVQLVESGGGLVQAGGSLRLSCAASGRIFGRNTMGWYRQAAGKERELVASITFGGVSTYYADSVKGRFTISRDTEKNTVYLQMNSLKPEDTEVYYCAAVLINYEGYDSWGQGTQVTVSS | low polyreactivity

Row | Sequence | polyreactivity (PSR sort gate)
17 | QVQLVESGGGLVQAGGSLRLSCAASGRIFGRYAMGWSRQAPGKERELVASISKRGGSTYYADSVKGRFTISRDNAKNTVYLQMNSLKPEDTAVYYCAALFLSHIYYYWGQGTQVTVSS | high polyreactivity
18 | QVQLVESGGGLVQAGGSLRLSCAASGRIFGRYAMGWYIQAPGKERELVAAISRRGVSTTYADSVKGRFTISRDNAKNTVYLQMNSLKPEDTAVYYCAAVRYGYSSTRDYLGQGTQVTVSS | high polyreactivity
19 | QVQLVESGGGLVQAGGSLRLSCAASGRIFGRYAMGWYRQAPGKERELVAAISVSGGSTYYADSVKGRFTISRDNAKNTVYLQMNSLKPEDTAVYYCATEWRPRYYGTEPFDSWGQGTQVTVSS | high polyreactivity
20 | QVQLVESGGGLVQAGGSLRLSCAASGRIFGRYAMGWYRQAPGKERELVADITYRTGRTYYADSVKGRFTISRDNAKNTVYLQMNSMKPEDTAVYYCAAESTSDPIDFEYWGQGTQVTVSS | low polyreactivity
21 | QVQLVESGGGLVQAGGSLRLSCAASGRIFGRYAMGWYRQAPGKERELVATITSGGSTYYADSVKGRFTISRDNAKNTDYLQMNSLKPEDTAVYFCAAVHRGYFLAFYYWGQGTQVTVSS | high polyreactivity
22 | QVQLVESGGGLVQAGGSLRLSCAASGRIFGRYTMGWYRQAPGKGRELDAAISDSGDSTYADSVKGRFTISRDNAKNSVYFQMNSLKPEDTAVYFCNAQSGSFAGHEYDYWGQGTQLTVSS | low polyreactivity
23 | QVQLVESGGGLVQAGGSLRLSCAASGRIFGRYVMGWYRQAPGKERELVAVISRRSGNTYYADSVKGRFTISRDYAKNTVYLQMNSLKPEDTAVLYCAARYYYSKSDRYDYWGEGTQVTVSS | high polyreactivity
24 | QVQLVESGGGLVQAGGSLRLSCAASGRIFGSYAMGWYRPAPGKERELVAAINRSGGSTRYADSVKGRFTISRDNAKNTVYLQMNSLKPEDTAVYYCAAPSYARYYAYDSWGQGTQVTVSS | high polyreactivity
25 | QVQLVESGGGLVQAGGSLRLSCAASGRIFGSYAMGWYRQAPGKERELVAAISGSGSRTYYADSVKGRFTISRDNAKNTVYLQMNSLKPEDTAVYYCNKYRFRVYPFGYWGQGTQVTVSS | high polyreactivity
26 | QVQLVESGGGLVQAGGSLRLSCAASGRIFGSYAMGWYRQAPGKERELVAAISWRGTSTYYADSVKRRFTISRDNAKKTVYLQMNSLKPEDTAVYYCAARGLWPYDYWGQGTQVTVSS | low polyreactivity
27 | QVQLVESGGGLVQAGGSLRLSCAASGRIFGSYAMGWYRQAPGKERELVAAISWSGGRTYYADSVKGRFTISRDNAKNTVYLQMNSLKPEDTAVYYCNALVFGRYRDMDYWGQGTQVTVSS | high polyreactivity
28 | QVQLVESGGGLVQAGGSLRLSCAASGRIFGSYAMGWYRQAPGKERELVAAITTDDSTNYADSVKGRFTISRDNAKNTVYLQMNSLKPEDTAVYYCNAERWDELFDSWGQGTQVTVSS | low polyreactivity
29 | QVQLVESGGGLVQAGGSLRLSCAASGRIFGSYAMGWYRQAPGKERELVASITSSGGSTYYADSVKGRFTISRDNAKNTVYLQMNSLKPEDTAVYYCAAGCAYLDAFYPYGYWGQGTQVTVSS | low polyreactivity
30 | QVQLVESGGGLVQAGGSLRLSCAASGRIFGSYTMGWYRQAPGKERELVAAISFSGARTRYADSVKGRFTISRDNANNTVYLQMNSLKPEDTAVYYCAARFTGGKYDYWGQGTQVTVSS | high polyreactivity
31 | QVQLVESGGGLVQAGGSLRLSCAASGRIFGTNAMGWYRQAPGKERELVAAISRSGGSTYYADSVKGRFTISRDNAKNTVYLQMNSLKPEDTAVYYCATDGRHTYYYWGQGTQVTVSS | high polyreactivity
32 | QVQLVESGGGLVQAGGSLRLSCAASGRIFGTNAMGWYRQAPRKERELVATITRGGGNTYYADSVKGRFTISRDNAKNTVYLQLNSLKPEDTAVYYCAAYDSVQKYWILGFDYWGQGTQVTVSS | low polyreactivity
